Assay results: paper PMC8765430, “MdaB and NfrA, Two Novel Reductases Important in the Survival and Persistence of the Major Enteropathogen Campylobacter jejuni” (Journal of Bacteriology, 2022)

Key:
MdaB (MdaBhis6) = target: T1, MdaB (MdaBhis6) (Campylobacter jejuni, UniProt Q0P880); assay: NADPH oxidation at […] nm; type: biochemical; conditions: 0.2 mM quinone substrates; 200 μM NADPH; 50 mM Tris-HCl, 100 mM NaCl, 10% DMSO; pH ~7.5; 37°C; anaerobic
T1 construct: gene Cj1545c; recombinant His6-tagged (pET21a+), E. coli BL21(DE3), Ni-NTA

NfrA (NfrAhis6) = target: T2, NfrA (NfrAhis6) (Campylobacter jejuni, UniProt Q0P871); assay: NADPH oxidation at […] nm; type: biochemical; conditions: riboflavin as acceptor; pH ~7.5
T2 construct: gene Cj1555c; recombinant His6-tagged (pET21a+), E. coli BL21(DE3), Ni-NTA

RrpB [1] = target: T3, RrpB (Campylobacter jejuni, UniProt Q0P870 1-110); assay: EMSA; EMSA: Odyssey infrared EMSA kit, 50 nM probe, 20 ul, 6% gel at 4 C. Footprinting: 10 mM Tris-HCl pH 8.5, 30 mM K-glutamate, 1 mM DTT, 5 mM Mg acetate, 2 mM CaCl2, 0.125 mg/ml BSA, 30% glycerol, 25 C; conditions: protein: recombinant; tags: C-terminal His6 (pET21a); chain copies: 2
T3 sequence: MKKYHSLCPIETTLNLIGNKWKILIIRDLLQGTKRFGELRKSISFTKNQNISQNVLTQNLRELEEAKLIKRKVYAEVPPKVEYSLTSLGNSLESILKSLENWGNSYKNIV

RrpA [2] = target: T4, RrpA (Campylobacter jejuni, UniProt Q0P879 1-115); assay: as above; conditions: protein: recombinant; tags: C-terminal His6 (pET21a); chain copies: 2
T4 sequence: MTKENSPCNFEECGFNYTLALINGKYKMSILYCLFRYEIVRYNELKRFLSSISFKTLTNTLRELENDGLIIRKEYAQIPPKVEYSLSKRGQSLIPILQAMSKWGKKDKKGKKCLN

RrpA [3] = target: T4, RrpA; assay: EMSA; 0.05 ug protein, 50 nM DNA; EMSA: Odyssey infrared EMSA kit, 50 nM probe, 20 ul, 6% gel at 4 C. Footprinting: 10 mM Tris-HCl pH 8.5, 30 mM K-glutamate, 1 mM DTT, 5 mM Mg acetate, 2 mM CaCl2, 0.125 mg/ml BSA, 30% glycerol, 25 C; conditions: protein: recombinant; tags: C-terminal His6 (pET21a); chain copies: 2; label: 5' IRDye 800
RrpB [4] = target: T3, RrpB; assay: EMSA; DTT (higher complex); EMSA: Odyssey infrared EMSA kit, 50 nM probe, 20 ul, 6% gel at 4 C. Footprinting: 10 mM Tris-HCl pH 8.5, 30 mM K-glutamate, 1 mM DTT, 5 mM Mg acetate, 2 mM CaCl2, 0.125 mg/ml BSA, 30% glycerol, 25 C; conditions: protein: recombinant; tags: C-terminal His6 (pET21a); chain copies: 2; label: 5' IRDye 800

T2 sequence (Q0P871 entry or part of it): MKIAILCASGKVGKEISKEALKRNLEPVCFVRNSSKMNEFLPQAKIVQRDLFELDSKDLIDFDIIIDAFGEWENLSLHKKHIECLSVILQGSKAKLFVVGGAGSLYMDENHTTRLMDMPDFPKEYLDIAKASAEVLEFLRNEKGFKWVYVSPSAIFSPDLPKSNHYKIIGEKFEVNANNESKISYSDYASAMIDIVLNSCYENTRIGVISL
T1 sequence (Q0P880 entry or part of it): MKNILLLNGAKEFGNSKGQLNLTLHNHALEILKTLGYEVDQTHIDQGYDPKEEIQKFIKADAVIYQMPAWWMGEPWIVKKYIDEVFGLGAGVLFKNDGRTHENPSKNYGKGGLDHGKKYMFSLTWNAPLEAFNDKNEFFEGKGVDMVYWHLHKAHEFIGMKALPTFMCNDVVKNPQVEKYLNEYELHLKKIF

With `NC(=O)C1=CN([C@@H]2O[C@H](COP(=O)(O)OP(=O)(O)OC[C@H]3O[C@@H](n4cnc5c(N)ncnc54)[C@H](OP(=O)(O)O)[C@@H]3O)[C@@H](O)[C@H]2O)C=CC1` [NADPH] the specific activity (MdaB (MdaBhis6)) was “reductase activity of MdaB was determined by monitoring the oxidation of NADPH” and the specific activity (NfrA (NfrAhis6)) was “This was indicative of NfrA’s preference for NADPH over NADH”.

B1: rrpB (-2) (dsDNA)
DNA 1: TTAAAAAATATGCGGATCTTTTAAAAAATAAGGATCGGATCTGAAAAAATAT
DNA 2: ATATTTTTTCAGATCCGATCCTTATTTTTTAAAAGATCCGCATATTTTTTAA
B1: no binding (RrpB [1]).

B2: rrpA (-2) (dsDNA)
DNA 1: GCATAATCGAGCTTTCAATACAGAAAATAAAGTAATATCGAGCACTAAAGGAATGTTAAATGA
DNA 2: TCATTTAACATTCCTTTAGTGCTCGATATTACTTTATTTTCTGTATTGAAAGCTCGATTATGC
B2: no binding (RrpA [2]).

B3: rrpAprobe (dsDNA)
DNA 1: GCATAATATCATTTTCAATACAGAAAATAAAGTAATATACTATACTAAAGGAATGTTAAATGA
DNA 2: TCATTTAACATTCCTTTAGTATAGTATATTACTTTATTTTCTGTATTGAAAATGATATTATGC
B3: binds (RrpA [3]).

B4: rrpA (-1) (dsDNA)
DNA 1: GCATAATATCATTTTCAATACAGAAAATAAAGTAATATCGAGCACTAAAGGAATGTTAAATGA
DNA 2: TCATTTAACATTCCTTTAGTGCTCGATATTACTTTATTTTCTGTATTGAAAATGATATTATGC
B4: binds (RrpA [2]).

B5: nfrAprobe (dsDNA)
DNA 1: TAGATCTTTAATATTTATATAAATGATGATTTTTAGTTCATCTATAATAAAATATTATATCA
DNA 2: TGATATAATATTTTATTATAGATGAACTAAAAATCATCATTTATATAAATATTAAAGATCTA
B5: binds (RrpB [4]).

B6: rrpBprobe (rrpB WT) (dsDNA)
DNA 1: TTAAAAAATATGTTATAATTTTAAAAAATAAGGATTTATAATGAAAAAATAT
DNA 2: ATATTTTTTCATTATAAATCCTTATTTTTTAAAATTATAACATATTTTTTAA
B6: binds (RrpB [4]).

B7: rrpB (-1) (dsDNA)
DNA 1: TTAAAAAATATGTTATAATTTTAAAAAATAAGGATCGGATCTGAAAAAATAT
DNA 2: ATATTTTTTCAGATCCGATCCTTATTTTTTAAAATTATAACATATTTTTTAA
B7: binds (RrpB [1]).

B8: rrpA WT (Fig. S1) (dsDNA)
DNA 1: GCATATAATATCATTTTCAATACAGAAAATAAAGTAATATACTATACTAAAGGAATGTTAAATGA
DNA 2: TCATTTAACATTCCTTTAGTATAGTATATTACTTTATTTTCTGTATTGAAAATGATATTATATGC
B8: binds (RrpA [2]).

B9: mdaBprobe (dsDNA)
DNA 1: AAATTTAAAATACTATGTTAATATTGAATCGTATTATAGTAAAAGTT
DNA 2: AACTTTTACTATAATACGATTCAATATTAACATAGTATTTTAAATTT
B9: binds (RrpA [3]).
